Laboratory results published in publication PMC9251408 (2022).

T1: IL-10 receptor alpha (Mus musculus, UniProt Q61727)
T1 chain: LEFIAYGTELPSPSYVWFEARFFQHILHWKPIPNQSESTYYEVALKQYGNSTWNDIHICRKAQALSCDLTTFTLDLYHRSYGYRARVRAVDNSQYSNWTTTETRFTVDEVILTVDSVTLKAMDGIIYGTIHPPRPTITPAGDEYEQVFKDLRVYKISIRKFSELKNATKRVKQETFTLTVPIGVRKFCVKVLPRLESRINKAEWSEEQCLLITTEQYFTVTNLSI

T2: IL-10 receptor alpha (Homo sapiens, UniProt Q13651)
T2 chain: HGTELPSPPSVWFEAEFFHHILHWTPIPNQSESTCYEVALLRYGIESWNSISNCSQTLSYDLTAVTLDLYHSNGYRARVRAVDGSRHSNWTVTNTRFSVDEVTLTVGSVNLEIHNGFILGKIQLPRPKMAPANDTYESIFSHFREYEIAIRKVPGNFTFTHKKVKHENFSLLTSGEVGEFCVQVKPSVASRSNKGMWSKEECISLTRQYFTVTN


Experiments:
IL-10 receptor alpha [1] = target: T1, IL-10 receptor alpha
IL-10 receptor alpha [2] = target: T2, IL-10 receptor alpha

Kd (IL-10 receptor alpha [1]) [nM] | Kd (IL-10 receptor alpha [2]) [nM] | Binder
3.2 | – | mFc-mIL-10 (mouse IL-10 mouse Fc-fusion) (protein, IL-10 fused to C-terminus of effector-reduced mouse Fc via Gly-Ser linker) SRGQYSREDNNCTHFPVGQSHMLLELRTAFSQVKTFFQTKDQLDNILLTDSLMQDFKGYLGCQALSEMIQFYLVEVMPQAEKHGPEIKEHLNSLGEKLKTLRMRLRRCHRFLPCENKSKAVEQVKSDFNKLQDQGVYKAMNEFDIFINCIEAYMMIKMKS
2.9 | 0.6 | hFc-hIL-10 (human IL-10 human Fc-fusion) (protein, IL-10 fused to C-terminus of effector-reduced human Fc via Gly-Ser linker) SPGQGTQSENSCTHFPGNLPNMLRDLRDAFSRVKTFFQMKDQLDNLLLKESLLEDFKGYLGCQALSEMIQFYLEEVMPQAENQDPDIKAHVNSLGENLKTLRLRLRRCHRFLPCENKSKAVEQVKNAFNKLQEKGIYKAMSEFDIFINYIEAYMTMKIRN
